Experimental data reported in US20100286374A1 (Amgen, published 2010).

Biological target: the molecule itself
Assay: homodimer formation; expressed alone in 293-6E, western blot with goat anti-human Fc HRP
Excerpt: FIG. 11. […] Fc molecules were detected using goat-anti-human Fc HRP conjugated at 1:10,000.
DNA was transfected into human embryonic kidney cell line 293-6E using Lipofectamine™ 2000 reagent (Invitrogen). The cell culture supernatant was harvested 3-4 days after transfection and analyzed on SDS-PAGE Gels under non-reduced condition. The gel was then transferred to nitrocellulose membrane and subject to western analysis using peroxidase-conjugated goat anti-human IgG antibody (Jackson ImmunoResearch Laboratories) and results are shown in FIG. 10.
Mutants were made and cells transfected as described in Example 1. When the constructs were co-transfected, a 1:1 ratio of plasmids were used. Heterodimer and homodimers were detected by Western blot using goat-anti-human Fc HRP conjugated antibody. […] Similarly, Fc-containing molecules having triple mutations wherein negative-charged residues were changed to positive-charged residues (D399K,E356K,E357K) were unable to be detected when expressed alone. When co-expressed with an Fc-containing molecule having mutations of opposite charge polarity, however, heterodimers only were detected.

| Protein | binding result |
| --- | --- |
| Fc-containing molecule with triple mutation D399K, E356K, E357K (Fc fusion) HMAEVQLQQSGAELVKPGSSVKISCKASGYTFANNFMHWIKQQPGNGLEWIGWIYPGDGDTEYNQKFSGKATLTADKSSSTAYMQLNSLTSEDSAVYFCIRLTEGTTYWGQGVMVTVSSGGGGSGGGGSGGGGSQFVLTQPNSVSTNLGSTVKLSCKRSTGNIGSNYVNWYQQHEGRSPTTMIYRDDKRPDGVPDRFSGSIDGSSNSALLTINNVQTEDEADYFCQSYSRGVSPVFGGGTKLTVLAAAEPKSCDKTHTCPPCPAPELLGGPSVFLFPPKPKDTLMISRTPEVTCVVVDVSHEDPEVKFNWYVDGVEVHNAKTKPREEQYNSTYRVVSVLTVLHQDWLNGKEYKCKVSNKALPAPIEKTISKAKGQPREPQVYTLPPSRKKMTKNQVSLTCLVKGFYPSDIAVEWESNGQPENNYKTTPPVLKSDGSFFLYSKLTVDKSRWQQGNVFSCSVMHEALHNHYTQKSLSLSPGK | no binding |
| Fc-containing molecule with triple mutation K409D, K392D, K370D (other) EPKSCDKTHTCPPCPAPELLGGPSVFLFPPKPKDTLMISRTPEVTCVVVDVSHEDPEVKFNWYVDGVEVHNAKTKPREEQYNSTYRVVSVLTVLHQDWLNGKEYKCKVSNKALPAPIEKTISKAKGQPREPQVYTLPPSREEMTKNQVSLTCLVDGFYPSDIAVEWESNGQPENNYDTTPPVLDSDGSFFLYSDLTVDKSRWQQGNVFSCSVMHEALHNHYTQKSLSLSPGK | no binding |
| Fc-containing molecule with triple mutation K409D, K392D, K439D (other) EPKSCDKTHTCPPCPAPELLGGPSVFLFPPKPKDTLMISRTPEVTCVVVDVSHEDPEVKFNWYVDGVEVHNAKTKPREEQYNSTYRVVSVLTVLHQDWLNGKEYKCKVSNKALPAPIEKTISKAKGQPREPQVYTLPPSREEMTKNQVSLTCLVKGFYPSDIAVEWESNGQPENNYDTTPPVLDSDGSFFLYSDLTVDKSRWQQGNVFSCSVMHEALHNHYTQDSLSLSPGK | no binding |
